The results in this text go back to patent US20080044423A1.

Common to all, as to assay: cell-based or functional assay
Assay [1] deals with human IL-17A, untagged, E. coli derived (in house or Peprotech) (human) (UniProt Q16552).
For assay [2], the target named is cynomolgus IL-17A (cynomolgus).
The target of assay [3] is human IL-17A derived from the HEK-EBNA expression system (human) (UniProt Q16552).
Sequence of human IL-17A derived from the HEK-EBNA expression system (human) (Q16552 24-155): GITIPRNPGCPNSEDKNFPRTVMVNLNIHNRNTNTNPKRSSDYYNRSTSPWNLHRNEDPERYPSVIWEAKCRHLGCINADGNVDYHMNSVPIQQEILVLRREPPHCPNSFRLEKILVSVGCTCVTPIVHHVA

Sequence of human IL-17A, untagged, E. coli derived (in house or Peprotech) (human) (Q16552 24-155): as above
Sequence of cynomolgus IL-17A (cynomolgus) (Q16552 other isoform, or with tags, fused parts or gaps limits assumed): as the sequence (Q16552 24-155) above, with T3A, P8S, N34S, I77V, N78K, P104R counted along it

In the case of “hIgG1 isotype control (human IgG1 CAT002, Cambridge Antibody Technology Limited)”, in assay [1], the OA synovial fibroblast IL-8 (IL-17A 1 ng/ml + TNF 0.01 ng/ml), % Inhibition at 50 nM antibody was -1.3%; the OA synovial fibroblast IL-8 (IL-17A 10 ng/ml + TNF 1 ng/ml), % Inhibition at 50 nM antibody is -3.9%; the cartilage explant IL-6 (IL-17A 10 ng/ml + TNF 1 ng/ml), % inhibition at 50 nM antibody was 3.3%; the cartilage explant IL-6 (pg/ml), mean, IL-17A 10 ng/ml + TNF 1 ng/ml + antibody (55.00 pg/ml without antibody) came to 53.2 pg/mL.
Take mAb317 (R & D Systems) (antibody): the HT1080 IL-6 release, IgG IC50 was found to be 14.1 nM in assay [2] and 3.2 nM in assay [3].
Turning to “mIgG1 isotype control (mouse IgG1, R & D Systems) (antibody)”, in assay [1], the cartilage explant IL-6 (IL-17A 10 ng/ml + TNF 1 ng/ml), % inhibition at 50 nM antibody was found to be 13.8% and the cartilage explant IL-6 (pg/ml), mean, IL-17A 10 ng/ml + TNF 1 ng/ml + antibody (55.00 pg/ml without antibody) was found to be 47.4 pg/mL.
